Experimental data published in US20130011427A1 (priority 2009, published 2013).

Experiments:
[1] = test system: HLA-A24/huCD8α (HLA-A*2402) Tg mice, CD4-depleted splenocytes; type: cell-based, mouse
[2] = molecular target: HLA-DR4 (HLA-DRA*0101 / HLA-DRB1*0401) (human); experiment: cell-based or functional assay
[3] = molecular target: HLA-DR3 (HLA-DRA*0101 / HLA-DRB1*0301) (human); experiment: cell-based or functional assay
[4] = test system: HLA-DR3 (DRB1*0301) Tg mice, CD8-depleted splenocytes; type: cell-based, mouse
[5] = test system: HLA-DR4/huCD4 (DRB1*0401) Tg mice, CD8-depleted splenocytes; type: cell-based, mouse
[6] = test system: HLA-DR2 (DRB1*1501) Tg mice, CD8-depleted splenocytes; type: cell-based, mouse
[7] = molecular target: HLA-A2.1 (HHD monochain) (human; murine); experiment: cell-based or functional assay
[8] = molecular target: HLA-DR2 (chimeric HLA-DRA1*0101/DRB1*1501 with I-E domains) (human; murine) (UniProt Q8BHN5); experiment: cell-based or functional assay
Chain of UniProt Q8BHN5 (Q8BHN5 whole entry, stated change not applied): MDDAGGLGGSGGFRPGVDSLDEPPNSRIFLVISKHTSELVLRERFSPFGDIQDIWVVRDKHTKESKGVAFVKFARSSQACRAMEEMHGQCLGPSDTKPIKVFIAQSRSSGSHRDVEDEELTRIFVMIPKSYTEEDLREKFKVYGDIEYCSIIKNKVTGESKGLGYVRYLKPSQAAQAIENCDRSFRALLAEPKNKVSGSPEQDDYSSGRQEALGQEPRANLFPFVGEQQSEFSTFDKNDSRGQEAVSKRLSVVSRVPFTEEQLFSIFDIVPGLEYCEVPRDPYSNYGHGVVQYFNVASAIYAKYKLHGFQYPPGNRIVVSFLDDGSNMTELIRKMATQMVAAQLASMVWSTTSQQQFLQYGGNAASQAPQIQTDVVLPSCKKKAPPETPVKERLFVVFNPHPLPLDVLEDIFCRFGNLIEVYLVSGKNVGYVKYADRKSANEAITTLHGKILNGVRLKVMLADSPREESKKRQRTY

[9] = test system: HLA-B7 (HLA-B*0702) Tg mice, CD4-depleted splenocytes; type: cell-based, mouse
[10] = molecular target: HLA-A24 (HLA-A*2402 with human β2-microglobulin) (human); experiment: cell-based or functional assay
[11] = molecular target: HLA-B7 (chimeric HLA-B*0702 / H-2K^d heavy chain) (human; murine) (UniProt P01902); experiment: cell-based or functional assay
Chain of UniProt P01902 (P01902 whole entry, change not shown): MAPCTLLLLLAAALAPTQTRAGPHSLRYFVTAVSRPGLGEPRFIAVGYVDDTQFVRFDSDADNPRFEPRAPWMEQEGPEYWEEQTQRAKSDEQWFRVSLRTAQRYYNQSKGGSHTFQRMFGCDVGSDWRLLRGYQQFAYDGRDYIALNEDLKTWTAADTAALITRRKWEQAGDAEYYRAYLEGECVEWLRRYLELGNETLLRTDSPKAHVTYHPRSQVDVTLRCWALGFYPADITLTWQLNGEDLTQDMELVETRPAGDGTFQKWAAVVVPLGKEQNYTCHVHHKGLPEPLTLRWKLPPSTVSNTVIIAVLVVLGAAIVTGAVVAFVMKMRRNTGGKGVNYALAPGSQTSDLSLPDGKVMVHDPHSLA

[12] = test system: HLA-A2.1 (HLA-A*0201) Tg mice, CD4-depleted splenocytes; type: cell-based, mouse

Question: For WFMWLGARFLEFEALGFL [NS5 477-494], which “T cell activation of HLA transgenic mice (SFC/10^6) IFN-γ ELISpot, A24” value (from here on “T cell activation of HLA transgenic mice … A24”) [1] is on record?
Answer: 198 ± 60 SFC/10^6

Question: What does the source list for WNV NS1 305-322 peptide?
Answer: IFN-γ ELISpot (SFC/10^6) [2]: 109 SFC/10^6; IFN-γ ELISpot (SFC/10^6) [3]: 557 SFC/10^6

Question: With MLGSNTMQRVVFVVLLLL [prM 144-161] as the substance, how does the “T cell activation of HLA transgenic mice (SFC/10^6) IFN-γ ELISpot, DR3” value [4] read?
Answer: 134 ± 35 SFC/10^6

Question: And the “T cell activation of HLA transgenic mice … A24” value [1]?
Answer: 59 ± 18 SFC/10^6

Question: And the “T cell activation of HLA transgenic mice (SFC/10^6) IFN-γ ELISpot, DR4” value [5]?
Answer: 315 ± 157 SFC/10^6

Question: And the “T cell activation of HLA transgenic mice (SFC/10^6) IFN-γ ELISpot, DR2” value [6]?
Answer: 84 ± 32 SFC/10^6

Question: How did the “T cell activation of HLA transgenic mice … A24” value [1] turn out when PYSGKREDIWCGSLIGTR [NS5 842-859] was run?
Answer: 180 ± 66 SFC/10^6

Question: Which results are given for WNV NS3 487-501 peptide?
Answer: IFN-γ ELISpot (SFC/10^6) [3]: 431 SFC/10^6; IFN-γ ELISpot (SFC/10^6) [7]: 308 SFC/10^6

Question: What does the source list for WNV prM 136-153 peptide?
Answer: IFN-γ ELISpot (SFC/10^6) [2]: 327 SFC/10^6; IFN-γ ELISpot (SFC/10^6) [3]: 78 SFC/10^6; IFN-γ ELISpot (SFC/10^6) [8]: 235 SFC/10^6

Question: For IALIALLSVMTMGVFFLL [NS4a 54-71], which “T cell activation of HLA transgenic mice … A24” value [1] is on record?
Answer: 70 ± 16 SFC/10^6

Question: Which “T cell activation of HLA transgenic mice … A24” value [1] does the source give for VMTMGVFFLLMQRKGIGK [NS4a 62-79] here?
Answer: 117 ± 39 SFC/10^6

Question: For LRNPGYALVAAVIGWML [prM 129-145], which “T cell activation of HLA transgenic mice … A24” value [1] is on record?
Answer: 71 ± 38 SFC/10^6

Question: What about the “T cell activation of HLA transgenic mice (SFC/10^6) IFN-γ ELISpot, B7” value (shortened to “T cell activation of HLA transgenic mice … B7”) [9] of the same substance?
Answer: 31 ± 7 SFC/10^6

Question: And the “T cell activation of HLA transgenic mice (SFC/10^6) IFN-γ ELISpot, DR2” value [6]?
Answer: 62 ± 11 SFC/10^6

Question: How did the IFN-γ ELISpot (SFC/10^6) [2] turn out when WNV NS4a 86-103 peptide was run?
Answer: 63 SFC/10^6

Question: And the IFN-γ ELISpot (SFC/10^6) [10]?
Answer: 65 SFC/10^6

Question: With ISAYTPWAILPSVVGFWI [NS2b 107-124] as the substance, how does the “T cell activation of HLA transgenic mice … A24” value [1] read?
Answer: 50 ± 11 SFC/10^6

Question: What about the “T cell activation of HLA transgenic mice (SFC/10^6) IFN-γ ELISpot, DR4” value [5] of the same substance?
Answer: 163 ± 4 SFC/10^6

Question: What about the “T cell activation of HLA transgenic mice … B7” value [9] of the same substance?
Answer: 81 ± 8 SFC/10^6

Question: What does the source list for YAQMWLLLYFHRRDLRLM [NS5 763-780]?
Answer: T cell activation of HLA transgenic mice (SFC/10^6) IFN-γ ELISpot, DR4 [5]: 91 ± 32 SFC/10^6; T cell activation of HLA transgenic mice (SFC/10^6) IFN-γ ELISpot, B7 [9]: 36 ± 16 SFC/10^6

Question: Which results are given for WNV E 442-459 peptide?
Answer: IFN-γ ELISpot (SFC/10^6) [3]: 101 SFC/10^6; IFN-γ ELISpot (SFC/10^6) [8]: 117 SFC/10^6; IFN-γ ELISpot (SFC/10^6) [7]: 442 SFC/10^6

Question: Which results are given for WNV NS3 500-517 peptide?
Answer: IFN-γ ELISpot (SFC/10^6) [3]: 145 SFC/10^6; IFN-γ ELISpot (SFC/10^6) [8]: 51 SFC/10^6

Question: With WNV E 210-225 peptide as the substance, how does the IFN-γ ELISpot (SFC/10^6) [11] read?
Answer: 519 SFC/10^6

Question: And the IFN-γ ELISpot (SFC/10^6) [7]?
Answer: 323 SFC/10^6

Question: How did the “T cell activation of HLA transgenic mice (SFC/10^6) IFN-γ ELISpot, A2” value [12] turn out when TFLVHREWFMDLNLPW [E 210-225] was run?
Answer: 323 ± 175 SFC/10^6

Question: What about the “T cell activation of HLA transgenic mice … B7” value [9] of the same substance?
Answer: 519 ± 477 SFC/10^6

Question: For WNV NS2a 45-61 peptide, which IFN-γ ELISpot (SFC/10^6) [2] is on record?
Answer: 74 SFC/10^6

Question: What about the IFN-γ ELISpot (SFC/10^6) [10] of the same substance?
Answer: 243 SFC/10^6

Question: What about the IFN-γ ELISpot (SFC/10^6) [8] of the same substance?
Answer: 307 SFC/10^6

Question: Which “T cell activation of HLA transgenic mice … A24” value [1] does the source give for TWTLIKNMEKPGLKR [NS4b 241-255] here?
Answer: 53 ± 32 SFC/10^6

Question: With ILESDLIIPVTLAGPR [NS1 236-251] as the substance, how does the “T cell activation of HLA transgenic mice … A24” value [1] read?
Answer: 43 ± 18 SFC/10^6

Question: What about the “T cell activation of HLA transgenic mice (SFC/10^6) IFN-γ ELISpot, A2” value [12] of the same substance?
Answer: 78 ± 42 SFC/10^6

Question: WNV E 465-482 peptide was tested. Which IFN-γ ELISpot (SFC/10^6) [3] did it give?
Answer: 330 SFC/10^6

Question: And the IFN-γ ELISpot (SFC/10^6) [8]?
Answer: 490 SFC/10^6

Question: And the IFN-γ ELISpot (SFC/10^6) [7]?
Answer: 310 SFC/10^6

Question: Which results are given for WNV NS4b 201-218 peptide?
Answer: IFN-γ ELISpot (SFC/10^6) [2]: 73 SFC/10^6; IFN-γ ELISpot (SFC/10^6) [3]: 99 SFC/10^6

Question: How did the IFN-γ ELISpot (SFC/10^6) [3] turn out when WNV NS3 37-54 peptide was run?
Answer: 368 SFC/10^6

Question: And the IFN-γ ELISpot (SFC/10^6) [8]?
Answer: 149 SFC/10^6

Question: How did the “T cell activation of HLA transgenic mice … A24” value [1] turn out when TLMEFEEPHATKQSVIAL [E 238-255] was run?
Answer: 122 ± 108 SFC/10^6

Question: WNV C 9-25 peptide was tested. Which IFN-γ ELISpot (SFC/10^6) [11] did it give?
Answer: 43 SFC/10^6

Question: For WNV NS3 1-15 peptide, which IFN-γ ELISpot (SFC/10^6) [11] is on record?
Answer: 45 SFC/10^6

Question: How did the “T cell activation of HLA transgenic mice … A24” value [1] turn out when NFQLMNDPGAPWKIWMLR [NS2b 84-101] was run?
Answer: 35 ± 1 SFC/10^6

Question: What does the source list for WNV NS4b 38-55 peptide?
Answer: IFN-γ ELISpot (SFC/10^6) [3]: 67 SFC/10^6; IFN-γ ELISpot (SFC/10^6) [8]: 57 SFC/10^6

Question: WNV NS3 474-489 peptide was tested. Which IFN-γ ELISpot (SFC/10^6) [3] did it give?
Answer: 83 SFC/10^6

Question: And the IFN-γ ELISpot (SFC/10^6) [7]?
Answer: 92 SFC/10^6
